Data published in the DeepSol protein solubility set.

Test: soluble on expression in E. coli; label from the status in PepcDB or PDB records

Sequence | soluble on expression in E. coli
MRHAVHQELIDTNPAANLGGVTTPPVRRHYPALPLERLPELLERIGAYHQGRELTRHAVLLMLHVFIRSSELRFARWSEIDFTNRVWTIPATREPIIGVRYSGRGAKMRMPHIVPLSEQSIAILKQIKDITGNNELIFPGDHNPYKPMCENTVNKALRVMGYDTKKDICGHGFRAMACSALMESGLWAKDAVERQMSHQERNTVRMAYIHKAEHLEARKAMMQWWSDYLEACRESYAPPYTIGKNKFIP | not soluble
MGSDKIHHHHHHMAETFPLLAAQPIYDNKNRFYAVELLYRSALNLTAETVGDTAATSEVVFNLCAGITSQTEHYDATAFINVSSEFLVSQSFLPLEPDKVVIELVERIKPTRAVVNAVARWYEKGFRFALDDFEFDPAWEPLLQYASYIKVDVSTLTLAQARVFKQKLSGFKGKWLAERVEDEATKQAYEELGFELFQGYYFAKPAIVYGTRLEPSSLQLAKVLSLCFEEEPDLTELSRVISEDPQLSVCLLKIVNSPLYPTASPITRVKDVIMRLGIEKLRRWIALIGAVTASSPEASRMVLVRAQMCYELAKWKSSPGLDADQCYFVGLLSGVDIMLGVDKASFFEKLPLSEQTRKAVEDCDGPMGQCLRIALKLERLVRMKEGLDKVDSRLLTTYQSVSTKVQELFNTI | not soluble
MGSDKIHHHHHHMACGRMYHFNVFAYGVEEILREVSKKGTESDIRLYNRKEEDGVMTFIEPIKYPDKVSSLTDSIYPTDLFIINGENLDKYFAETVIALDLFGKTRGIIVASEDKQSTIRKLLKDTNIQPEFFSGRPMEIIDRIKAFKIERNEQDTLVVIDHYFKVKSVGTVILGFVLSGKIRKHQDLYLSGINREVQVRSIQVNDVDFDEAEAGTRVGVALKNVEVEELSRGMFLAEKPFEYTNQVKDSVVFHKSLKGRDTMSDPYISDLMNFVKCNPEGDAYTTRFKLPLLKDSFVMADQNGFPRVVGYSKVKR | not soluble
MGSDKIHHHHHHMSLPKYVEQLLKEKSNVRVFSFKYDGKSYWLKQTEKLSFIWRFLKSNPAEMLKSEIIRLQELNKKSAPVPKLVLFGDNFFVTEDVGSSANTWVENEDLSIELRNKVLFDCAQALASLHKQNITHGRPALRDMIWCEEKVIFVDFECTSSSNNIDWQKIRDGLVFIHSLGRSSTVSDEQIALTVTHYRQYCDADIWQKTADFIYKYRWAYYVLRIFKPVARMDLIAIYRLFEAILKNQETL | not soluble
NQKMIASAFNNALGAIQDGFDATNSALGKIQSVVNANAEALNNLLNQLSLVPRGSGGSGGSGGLNVTLLDLTYEMNRIQDAIKKLNESYINLKE | soluble
MCFSPEDRKKTDHLLALDGAKERLKLFKADLLDEGSFELAIDGCETVFHTASPVAITVKTDPQVELINPAVNGTINVLRTCTKVSSVKRVILTSSMAAVLAPETKLGPNDVVDETFFTNPSFAEERKQWYVLSKTLAEDAAWRFAKDNEIDLIVLNPGLVTGPILQPTLNFSVAVIVELMKGKNPFNTTHHRFVDVRDVALAHVKALETPSANGRYIIDGPVVTIKDIENVLREFFPDLCIADRNEDITELNSVTFNVCLDKVKSLGIIEFTPTETSLRDTVLSLKEKCLV | soluble
MGSDKIHHHHHHMKILVGSPVSLEEFETIDLFISWLDVIPDNARFSIVGTSKFFIIGKNGREWKKGYEFGIVDADINIFVVGGDLALYPEVFYIAKENGAKLVVGFCEIQNFIDFNFVKAKFWAHTQETSLASIVLLNFLGKVHNNIYFPLEKTKNQTGVVAEGVAPVFLELKKNFFSSEEAEDV | not soluble
MKIIGKIGKGKVEVNEKTKFSILLNNVAKKADIAEGKRAVEDIIRVIYRHQPISTKKIAQKTRLPLPIVAKVRTILEREKILKRTERGAELTDLGKEFAENFLKLKYKKSLTCKTCNGRGIVLDEFFEDILNKVRVWAKRRPLVDTTIDQSFATPETSTYRAALMYERGDLEGKRILFVGDDDLTSLPTALTNMAEEIAVVDIDERILKLIEKFSQKEGVKIKTIKHDLRNPLPQDLKERFDVISTDPPYTVDGLKLFLSRGIEALGKEGIAYLSYSHKPIDEWLSIQKAITNMGFVISELIPNFNYYEGSEIIANTTFIARLVGKNLKINIGDTEKIYTGLVKPVIRYYKCLKCGKIHKVGEEVKKVEDLVCECGGKKFKMIKREKLKNELEHHHHHH | soluble
SSFKKILGLSSKSHKKSKKMGLPPPYDESSPMETQPSAPLSNDFFGMEDMDLYDKDSLRYEKFRFMLKMTVRSNKPFRSYDDVTAAVSQWDNSYIGMVGKRPFYKIIALIGSSHLQATPAVLADLNQPEYYATLTGRCFLPHRLGLIPPMFNVSETFRKPFNIGIYKGTLDFTFTVSDDESNEKVPHVWEYMNPKYQSQIQKEGLKFGLILSKKATGTWVLDQLSPFK | soluble
NSDALVSIQTSKLPKTAYTATDFIKTAQYKYNHIVSNTVYELDLFQNAVSYADFAVLELELNLANNRDQQIFDSFINPAVTAYEKLGNSLGLFSNLQLDQYVDDTHYLLGYPLLKREKTSY | not soluble
MGSDKIHHHHHHMGLEDLYLSWPKWFSEALARYSSLEGALEGVEEIYYCGMGGSGAAGDYIEALLSIYAPQGPEFRVVKDFRPPRPPRHRGYGLVLASYSGNTLETVECGSLLSPAAGRVVAVTSGGRLLEMAKERGWLVARLPGGILPRVSFPWMLAASTAMLSGALGVDLEALKRLAGGLDTQGLKGEAERLAGFISRYRIASLVTCGPGIPLAVRLKNELAENAKMPSRLEIYPESSHNDIVALEAAEGLYGAVFIWIEHEGSLCPAVLDVVEGIYREYGVDTISIESSARGGPNATVAEYLSRTLVFGLASVRLALMRGFNPEETPPIDKYKRRLGEALRSQA | not soluble
MGSDKIHHHHHHMKIKVALLDKDKEYLDRLTGVFNTKYADKLEVYSFTDEKNAIESVKEYRIDVLIAEEDFNIDKSEFKRNCGLAYFTGTPGIELIKDEIAICKYQRVDVIFKQILGVYSDMAANVATISGENDKSSVVIFTSPCGGVGTSTVAAACAIAHANMGKKVFYLNIEQCGTTDVFFQAEGNATMSDVIYSLKSRKANLLLKLESCIKQSQEGVSYFSSTKVALDILEISYADIDTLIGNIQGMDNYDEIIVDLPFSLEIEKLKLLSKAWRIIVVNDGSQLSNYKFMRAYESVVLLEQNDDINIIRNMNMIYNKFSNKNSEMLSNISIKTIGGAPRYEHATVRQIIEALTKMEFFEEILQ | not soluble
MGSDKIHHHHHHLRPDLEHYYLIDQYLENKLTGQELAAFEQQLMQDKAFANEVQEQRMLNNLILEAELKSVRSQIEKDLLNMQTPSFFRMHWQWISAGALCLLGSLFFMLPGKKDIQTVSLQKSAASHIEKENNPDIAPVENTTQKTATALNLPAKTDISDIVTRTQATDTAQAGSLVIAGTPVIVPVNTKTEPALETTAGEENKKTDCSLTKITSVITTENSCMNTETGSIHIDKISGGIAPYTYTLNNKKIKEKNVSALGAGIYEVKISDRNGCLSEQKISILEKNCTPAIQQGTKFNINPMLGETCSIAFDTDKKGSLTIYNRSGKIVYRVTNPSLDYIEWNGSDGTGALAEAGLYVYLIDYTDGTKVTGEVTITR | not soluble
MNEKNRQLPAFTPRNRRTHPISAERKQLGVDDIVDHCMIYVDGRAIQGWFDYGSGLKRVKDFIASGHKAFMWLSLEEPSEQHMMQVADDLHIHELIVEDAVTAHQRPKVERYDDQIFMVVRSVFYRDHETVDDANEIIKTGEVQMLIGEHFIITIRHRTPMPDLTMRLDDPQEISSYGPMIIAWAWADYLVDGYLRIVNILAEEVDELEEEVFTPGSSFNIEHIYMIKREILEMRHAIDPLAPALRMLVTQHKDMIAKQLRSYLRDVLDHEMVAKDYVANFDERLSSLIDAGVAKISLQQNSDMRAIS | not soluble
MSELFKKLMDQIEMPLEMKNSRVFSSADIVEVKVYPESRIWDFRFSFETILPIDFYQELRSRLVTSFETADIKAVFDIEVENAEFSNELLQAYYQEAFKQPTCNSASFKSSFSHLTVSYTDGKVLISAPQFVNNDHFRKNHLPNLEKQFEAFGF | not soluble
MGSDKIHHHHHHMTQHPFISRVAVRNYKSIGYCDVNLRPLTYLVGHNGAGKSNFMDALHFVCDALSYSLDSALNERGGINEVRRRSGGHPTHFALRVEFVMQSGQAGRYGFVIGALKNGGYEVQREECVVAGIGKGPFFRIEKGKLRDSSETTFPSVTADRLALVAASGLTAFRPVFDALTAMGFYNLNPKLMRELQKPQDGRLLRPAGENIASVIGHLEKVAPAQMALIQEYLHSVAPMVHGVERKPIGPMETLEFRQDMAGSKHPWRFLAQNMSDGTLRALGVLSALLQGNVDYSPTLIGIEEPETALHPAASAALREALVRASETTQVLVTSHSPDLLDDHSIDADAVLAVVSEAGETKVAPLDEGSRQVMRDHLFSAGELLRMNQLAPDRASLEQQDKAASGDLFGETESV | not soluble
MAKKVFIGATGQNCGKTTMSVSLMHLARQKYQRVGFIKPIGPKIEMYNGLTVDMDAILMARTFGLEEDLALMNPVPLPKNFTRDYLSGKFDCHTLKKKIVEAFEILDQSYDFLIIEGAGHCGVGSVIGLSNACVAHMLGAPVIVVTDSGIGSAIDAVHLNLALYEKEEADVRMVIVNKLRSDKRDSILGFLRRGFPGRSLQVTGGFNYSPVLANPTLSHIGKLLNLPVHGDADGHSRIIHHIHLGAASSQRVVDALEDATLLVLTSSRDELIVTLSSLYHIPSYRDKIAGLVIAGHMPVSEITQQILDDSMIPYIRVHDSTARVFTTLMEDVSKITAEDQEKLNWIRANAENEIDFEAIDALLLEHHHHHH | not soluble
MGSDKIHHHHHHMLYLIGLGLSYKSDITVRGLEAIKKCSRVYLEHYTSILMAASQEELESYYGKEIILADRELVETGSKQILNNADKEDVAFLVVGDPFGATTHTDLVLRAKREAIPVEIIHNASVMNAVGACGLQLYNFGQTVSMVFFTDNWRPDSWYDKIWENRKIGLHTLVLLDIKVKEQSIENMARGRLIYEPPRYMSIAQCCEQLLEIEEKRGTKAYTPDTPAVAISRLGSSSQSFKSGTISELANYDSGEPLHSLVILGRQCHELELEYLLEFADDKEKFGKDVANDQEYFKPAAWVPPTEDDSDE | not soluble
MGSDKIHHHHHHMQTLPTPTTSSNTANQSTFDTTIKRRKTRPVKVGNVTIGGGYPVVVQSMINEDTLDIDGSVAAIRRLHEIGCEIVRVTVPSIAHAVALAEIKQKLITTYQDVPIVADVHHNGMKIALEVAKHIEKVRINPGLYVFEKPNTNRTEYTQAEFEEIGEKIRETLAPLVITLRDQGKAMRIGVNHGSLAERMLFTYGDTPEGMVESALEFIRICESLDFRNIVISMKASRVPVMVAAYRLMAKRMDDLGMDYPLHLGVTEAGDGEYGRIKSTAGIATLLADGIGDTIRVSLTEAPEKEIPVCYSILQALGLRKTMVEYVACPSCGRTLFNLEEVLHKVRESTKHLTGLDIAVMGCIVNGPGEMADADYGYVGKTPGYISLYRGREEIKKVPEDKGVEELINLIKADGRWVDP | not soluble
MGSDKIHHHHHHMEELRSGSSVCRVSRRGAFVSSLRISNMEILKRSSDRYATHGGMAILIPYADIVSDGTYTWHGRRYQLPRNAGYEGNFTDSIHGLVKSAYFSIIYKDVDSILLKYALERSGYPSRLNIYVNYAVQHDSLGTVISVENTGNNEAPLVCGSHPYFLYRDFWFIKFSNSAVRLFSGGDLSLRKDESVNFLTKKIEGYYDDSFYSDGMILLVSSDRMIELDRRSMPYFEVYDGKYAERRSLAVEPMTGAPNAYNNKIGLIDLKPGETFLCGFDIRVASI | not soluble
MSNALRGGPDFLLSVDSPVNIPSAFWSTLSPMTPRPRLLLTAALLALVPAAQAADLRLYPTLGEVTSQPLKVEGGAVTVPFPKADWAWVVPGSVRLLGVPVTRTRVTPGVNVLRAHEGEAVRVLRGGLNLKGTLADAEALLVQLDSGEYLTVRPDELAFSTRPPSSRDVADVKVTFETGGAGSANLLYQTRALSWKPRYELDASGDAATLRALAEIRNAGDQSFSGSTDLYAGDVRLVPENVPMPTLRWWENSPRPPAARAMPLSPRTALSRLSARLEHHHHHH | not soluble
